Assay: soluble on expression in E. coli; label from the status in PepcDB or PDB records

Sequence	soluble on expression in E. coli
LPNITILATGGTIAGGGDSATKSNYTVGKVGVENLVNAVPQLKDIANVKGEQVVNIGSQDMNDNVWLTLAKKINTDCDKTDGFVITHGTETMEETAYFLDLTVKCDKPVVMVGAMRPSTSMSADGPFNLYNAVVTAADKASANRGVLVVMNDTVLDGRDVTKTNTTDVATFKSVNYGPLGYIHNGKIDYQRTPARKHTSDTPFDVSKLNELPKVGIVYNYANASDLPAKALVDAGYDGIVSAGVGNGNLYKSVFDTLATAAKTGTAVVRSSRVPTGATTQDAEVDDAKYGFVASGTLNPQKARVLLQLALTQTKDPQQIQQIFNQY	soluble
RFEPSFLDKLFDDEPHVPAPAAMRQLSLEELKNTVARDVEAILNTRIALTEEDLAALPECQRSVLTYGLNDFAGLSLASHYDRTFICKSIQQAIARHEPRLQQVQVTFELNEQSTNALYFAIQALLVVHPAEEPVTFDAMLQPS	not soluble
MASIINKQIISPTGRNMEIINYEILKKYPLCDRCFGRLYAKLLHTTNTERGRALKLYKALELEAKIKKAKEKGINYEEELELLKALAKSGVDEIRLEDIEIEKENCPWCRGIFNKQKMEKLLNKAIELLKEYDFDTFLIGTHIPEEIKDLEKEIETEFMESIKQEFGREFGKMLAVRLDKAPDKEYPDIVVHINPYTEEIYLQINPLFIKGRYRKLVRGIPQTRWPCRKCRGKGCELCNYTGKKYPISVEEIIAKPFLEATKGVDAKFHGAGREDIDVRMLGDGRPFVLEIKEPKIRKIDLNKIAEEINKDGRVEVLNLEFGVRKDKVIFKNTPHRKTYRALVECSDKITDEELKLLEKELENRTIYQKTPKRVLHRRADLERIRKVYKVKTSKVDDNHFEMIIYCDGGLYIKELISGDDGRTNPSVSSILNKNCICKELDVLKIHDNNLLEKG	soluble
MSLSDLSAFAVTQKWPAQFPEWIQLYSLPTPNGVKVSVMLEEIGLPYEAHRVSFETQDQMTPEFLSVSPNNKIPAILDPHGPGDQPLALFESGAILIYLADKSGQLLAQESAARYETIQWLMFQMGGIGPMFGQVGFFNKFAGREYEDKRPLERYVNEAKRLLGVLDKHLGGREWIMGERYTIADIATFPWIRNLIGFYEAGELVGIDNFPEVKRVLAKFVARPAVIRGLEIPKVSEGHHHHHH	soluble
MSLKKNVYFLLALLLIGLSACDNAPKFKVQGEINGAEDKMLYLEASGLDGIVALDSAKLGSSGSFSFAQKRPESPEFYRLRLDNKVINFAVDSTETVSVKAEINDFATAYRIEGSENNLKIKELVLLQADLQKNVDKLGQNRNIPAGIAQDSLLAMVNNYKNKVKREYIFAAPNMPYAYFALFQSLNGYMIFDPLTNKEDVKCFAAVATSLNNAYPHADRSRNLYNMVIKGMKNTRTPRQQTMEIPEDKIKEASIIDIQLKDLKGNTRSLTDLKGKVVLIDFTVYNNAMSAAHNLALRELYNKYASQGFEIYQISLDGDEHFWKTSADNLPWVCVRDANGAYSSYISLYNVTNLPSVFLVNRNNELSARGENIKDLDEAIKKLLEGHHHHHH	not soluble
MSLKITQIQAQNKNKNRRNVFVDGSYEFSCDMEIILKYKLKEGLEIDRTKLLQVIDQSKEEFAFRLALNYLSFKSRTSFEIYTYLLKKEYEEKIIEKVIEKLKYYRYVDDNQYVLNYIKTALAEGKKGKDRVQSDLINKKIPQDMIESHMHLFSCETNLEIAKELSNKYFKQNAHLPFNQFKNKLSQFLMRKGFNWEIINTCLNILEQDSEVQSHIDSNKELYVKEAIKLGNKYFVKYKAKETNPYLVEHKVKSHLYQKGYDKDTINLAFKKIIENSEGHHHHHH	not soluble
GMKRVLLLFDVDGTLTPPRLCQTDEMRALIKRARGAGFCVGTVGGSDFAKQVEQLGRDVLTQFDYVFAENGLLAYRNGLEIHRQSLLNALGNDRIVKFVKKTLRLIADLDIPVQRGTFVEYRNGMINVSPIGRNCSQAERDEFEVYDNEHRVRASLIAELENSFPDFGLKYSIGGQISFDVFPVGWDKTYCLQFVEDDFEEIHFFGDKTQEGGNDYEIYTDKRTIGHKVTSYKDTIAEVEKIIAMK	soluble
MGSDKIHHHHHHMTFEQLLYAVELANHQTLQETADLLHISKSGLSQSISQLENELGVKLFKRTRYGSKLTAQGKELLPLIKQMLSQGVSLTKKAHNLGKSGQIETVRVAYANTMLKPFLNEYLAMYQDVPTKFNMEISQETVTQIIDGIRSHRINLGFIAINDSNKAEIHGLEFKPVHVGHLKLFLSPDNQLVKKQKINIEDLQKQRFALFNDPYNDRIFEHLQYLCGPLKTVIKTDDGWAMYTTIKKANAVALVRDWQTSYSSYEPLQKLPSLDISNLIDDRFYLGWLTNPKYTTSRYTHRYTQEFIKHVDAQIKEC	not soluble
MAAQPNAPESAWPVRELNSKVKSWIERLGHLWVEGQITQLNMKPSWKFSYITLRDPEAEASVQLTCATSLLHSLPSRLQDGDRVVVYGKPAFYEGRGSFSLWVTDIRPVGVGELLARIERLRQQLASEGLFDPALKKPLPFLPHTIGLITGRGSAAERDVLAVAHSRWPEVKFNVINTAVQGARAVPEIIEALQRLDADPSVDVIIIARGGGSVEDLLPFSEEALQRAVVAAHTPVVSAIGHEPDNPVLDNVADLRAATPTDAAKKVVPDVAAERQLIAELRSRSAAALRGWVHKERQQLAAVRSRPALADPVRAITLHREEIARSISSIRRDMRYMLSTERATVASLRQQVAALGPSATLARGYAVVQVVPRDGSAPEVVTTIGMSPPGSQLRIRVADGSITAAAMQTTPAD	not soluble
GMSENKKKFDKKGAKNMDEISKTLFAPIYPIIAENIINRFGITAGTCIDIGSGPGALSIALAKQSDFSIRALDFSKHMNEIALKNIADANLNDRIQIVQGDVHNIPIEDNYADLIVSRGSVFFWEDVATAFREIYRILKSGGKTYIGGGFGNKELRDSISAEMIRKNPDWKEFNRKNISQENVERFQNVLDEIGISSYEIILGDEGFWIIISKTDQEVI	soluble
MGSDKIHHHHHHMSLLKITQGLFRLSDTRMLRLDELTLEQNQCWAFVGANGSGKSALARALSGELPLLSGERTTGFQHPVRLSFEQLQKLVSDEWQRNNTDLLSEGEDDTGRTTAEVIQDSLNDPTRCQQLACQFGIAHLLERRFKYLSTGETRKAMLCQALMPQPDLLILDEPFDGLDVTSRQQLADELRKLVDTGYTLVLILNRFDDIPDFINHIGVLADCTLTRIGEREAILSEALVAQLAFSEKLSGSSLPEPEDPQRHVTLPADEAHILLRNGVVQYNDRPILHELTWEVFPGQHWQIIGPNGAGKSTLLSLITGDHPQGYSNDLTLFGRKRGSGETIWDIKRHIGYVSSSLHLDYRVSTSVRNVILSGFFDSIGIYQAVSDRQRHLTEQWLILLGLSGAIADTPFQSLSWGQQRLTLIARALVKHPALLILDEPLQGLDPLNRQLVRRWLDILIGEGETQLLFVSHHAEDAPECITHRLTFVPHNDIYRYQIDELCK	not soluble
MSLVQFASDTDPIVQPDSLSDAGAAAPVTREAVLGAFLRAHRERLAPADVGLPPGRRRRTPGLRREEVAQLAGLSATWVTWLEQGRPVALSARALASLAAALRLSRAERAYLFELAGRRDPQQAGGEAVPAAVMASVHAIRGPAYLLDRQWNALTWNAAAAELFIGWLDGDSQERNLLRAMFVSAPLQALVEDWPHRAGRLVAEFRAHSIRHADDAPMRALIEGLMAESPAFRAAWLSQDVEDREGGRRGFRHPALGALQFEQLTLWPAAAPGLMLVMLLPAEGHHHHHH	not soluble
MNRTAMRASQKDFENSMNQVKLLKKDPGNEVKLKLYALYKQATEGPCNMPKPGVFDLINKAKWDAWNALGSLPKEAARQNYVDLVSSLSPSLESSSQVEPGTDRKSTGFETLVVTSEDGITKIMFNRPKKKNAINTEMYHEIMRALKAASKDDSIITVLTGNGDYYSSGNDLTNFTDIPPGGVEEKAKNNAVLLREFVGCFIDFPKPLIAVVNGPAVGISVTLLGLFDAVYASDRATFHTPFSHLGQSPEGCSSYTFPKIMSPAKATEMLIFGKKLTAGEACAQGLVTEVFPDSTFQKEVWTRLKAFAKLPPNALRISKEVIRKREREKLHAVNAEECNVLQGRWLSDECTNAVVNFLSRKSKL	not soluble
MNKLKYLQGYPEHILAQVAPMVENGKLAEWVKKKYPTMHDITSEKALFDYTQALKNKYIKKSSPLSKVVYDPKIHVVNNALGLHTFVSRIHGNKLKAKNEIRISSVFRKAPEPLLRMLVVHELAHIKEKEHNKAFYALCCHMEPEYHQLEFDARLYLTYLETLLEHHHHHH	soluble

— the DeepSol protein solubility set
